Reference: US20240342214A1 (MEDIZINISCHE HOCHSCHULE HANNOVER, published 2024)

T1: human ENTPD3 (Ectonucleoside triphosphate diphosphohydrolase 3) expressed on cells (human, UniProt O75355 1-529)
T1 sequence: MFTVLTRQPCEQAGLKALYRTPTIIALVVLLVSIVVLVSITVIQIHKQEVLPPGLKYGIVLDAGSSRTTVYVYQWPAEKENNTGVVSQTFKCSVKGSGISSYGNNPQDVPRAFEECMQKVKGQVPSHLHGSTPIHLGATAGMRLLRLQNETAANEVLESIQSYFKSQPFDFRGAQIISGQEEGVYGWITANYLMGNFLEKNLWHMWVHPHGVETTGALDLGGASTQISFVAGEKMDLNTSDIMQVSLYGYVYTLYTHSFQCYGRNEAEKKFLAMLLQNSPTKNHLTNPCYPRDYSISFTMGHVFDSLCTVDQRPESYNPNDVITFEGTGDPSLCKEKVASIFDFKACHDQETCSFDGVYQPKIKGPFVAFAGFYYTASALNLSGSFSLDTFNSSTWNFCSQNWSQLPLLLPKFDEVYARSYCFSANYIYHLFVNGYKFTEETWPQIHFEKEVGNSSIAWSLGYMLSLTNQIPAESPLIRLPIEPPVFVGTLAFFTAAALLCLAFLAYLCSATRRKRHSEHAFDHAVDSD

T2: murine ENTPD3 expressed on HEK293T cells (mouse, UniProt Q8BFW6 1-529)
T2 construct: Transiently transfected HEK293T cells (vector with eGFP behind a P2A site); also called mENTPD3; mouse ENTPD3
T2 sequence: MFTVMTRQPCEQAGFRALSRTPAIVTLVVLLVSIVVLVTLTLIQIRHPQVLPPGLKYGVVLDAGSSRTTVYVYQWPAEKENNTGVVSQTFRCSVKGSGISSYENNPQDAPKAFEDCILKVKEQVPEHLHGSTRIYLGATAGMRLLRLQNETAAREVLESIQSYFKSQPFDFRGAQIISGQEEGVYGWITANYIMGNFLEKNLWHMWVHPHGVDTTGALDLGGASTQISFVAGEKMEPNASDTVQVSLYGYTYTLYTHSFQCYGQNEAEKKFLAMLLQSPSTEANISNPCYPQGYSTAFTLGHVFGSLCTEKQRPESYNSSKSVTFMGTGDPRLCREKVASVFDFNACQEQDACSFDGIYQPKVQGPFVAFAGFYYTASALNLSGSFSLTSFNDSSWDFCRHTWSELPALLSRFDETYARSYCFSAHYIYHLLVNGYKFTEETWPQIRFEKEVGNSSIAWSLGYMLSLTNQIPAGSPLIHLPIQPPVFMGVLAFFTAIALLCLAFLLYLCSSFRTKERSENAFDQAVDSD


Key:
[1] = biological target: T1, human ENTPD3 (Ectonucleoside …); assay: cell-based or functional assay
[2] = biological target: T1, human ENTPD3 (Ectonucleoside …); assay: cell-based or functional assay; remark: listed apart in the source
[3] = biological target: T1, human ENTPD3 (Ectonucleoside …); assay: flow cytometry; soluble scFv on transfected HEK293T cells; anti-His PE
Method: (§1) scFv binders initially obtained by phage display cell panning were screened first for recognition of ENTPD3 expressed on cells. Therefore, soluble scFv were produced in E. coli and used to stain HEK293T cells transiently transfected with a vector expressing the recombinant protein and eGFP downstream separated by a P2A site. Secondary staining was performed by PE staining the His-Tag of soluble scFv. Cells were measured in flow cytometry for GFP (antigen expression) and PE (scFv binding).

[4] = biological target: T2, murine ENTPD3 expressed on HEK293T cells; assay: as above
Method: as §1

| Binder | binding result [3] | binding result [4] | also measured |
| --- | --- | --- | --- |
| CAR 2-CD8 (antigen binding domain from binder B2, CD8 hinge) (other) QVQLVQSGGGVVQPGRSLRLSCAASGFTFSSYAMSWVRQAPGKGLEWVSAISGSGGNTNYADSVKGRFTISRDNSKNTLYLQMNSLRAEDTAVYYCAKGGSTSSGYRFDYWGQGTLVTVSSGGGGSGGGGSGGGGSQLVLTQSPSASASLGASVKLTCTLSSGHSNYAIAWHQQQPEKGPRFLMNVNRDGSYTKGDGIPDRFSGSSSGAERYLTISSLQSDDEADYYCQTWGTGVQVFGGGTKLTVLTRFVPVFLPAKPTTTPAPRPPTPAPTIASQPLSLRPEACRPAAGGAVHTRGLDFACDIYIWAPLAGTCGVLLLSLVITLYCNHRPPALEWVRSKRSRLLHSDYMNMTPRRPGPTRKHYQPYAPPRDFAAYRSASCTRVKFSRSADAPAYQQGQNQLYNELNLGRREEYDVLDKRRGRDPEMGGKPRRKNPQEGLYNELQKDKMAEAYSEIGMKGERRRGKGHDGLYQGLSTATKDTYDALHMQALPPR |  |  | Fold Change in TNF-α secretion (hIsMT/T cell co-culture 48 hrs) [1]: 521 fold, relative to the mock CD8 T cells condition; Fold Change in TNF-α secretion (hIsMT/T cell co-culture 72 hrs) [1]: 568 fold, relative to the mock CD8 T cells condition; Fold Change in IFN-γ secretion (hIsMT/T cell co-culture 48 hrs) [2]: 269 fold, relative to the mock CD8 T cells condition; Fold Change in IFN-γ secretion (hIsMT/T cell co-culture 72 hrs) [2]: 294 fold, relative to the mock CD8 T cells condition |
| hg012-D3 scFv (scFv, Soluble scFv made in E. coli, with Myc tag and His tag) scFv: QVQLVQSGGGLVQPGRSLRLSCAASGFTFDDYAMHWVRQAPGKGLEWVSGISWNSGSIGYADSVKGRFTISRDNAKNSLYLQMNSLRAEDTALYYCAKGANYDILTGYEYWGQGTLVTVSSGSASAPKLEEGEFSEARVQAVVTQEPSLTVSPGETVTLTCGSSTGAVTSDHHPYWFQQKPGQVPRTLMHDTSTRYSWTPARFSGSIVGGKAALTLSGAQPEDEAEYHCFLYYSGTAIFGGGTKLTVLSQPKAAPSVTLFPPSSAAAGSEQKLISEEDLSHHHHHH | binds | no binding |  |
| hg012-B7 scFv (scFv, Soluble scFv made in E. coli, with Myc tag and His tag) scFv: QVQLQQSGAEVKKPGASVKVSCKASGYTFTSYAMHWVRQAPGQRLEWMGWINAGNGNTKYSQKLQGRVTITRDTSASTAYMELSSLRSEDTAVYYCARDSGYDLFDYWGQGTLVTVSSGSASAPKLEEGEFSEARVQAVVTQEPSFSVSPGGTVTLTCGLTSGSVSTTYYPSWYQQTPGQTPRTLIYKTNLRSPGVPDRFSGSILGNKAALTITGAQADDDSDYYCLLYMGSGVWVFGGGTRLTVLGQPKAAPSVTLFPPSSAAAGSEQKLISEEDLSHHHHHH | binds | no binding |  |
| hg012-C1 scFv (scFv, Soluble scFv made in E. coli, with Myc tag and His tag) scFv: QVQLVQSGAEVKKPGESLKISCKGSGYSFTSYWIGWVRQMPGKGLEWMGIIYPGDSGTRYSPSFQGQVTISADKSISTAYLQWSSLKASNTAMYYCARQQGAGAFDIWGQGTMVTVSSGSASAPKLEEGEFSEARVQSALTQPPSASGSPGQSVTISCTGTSRDVGGYNYVSWYQQHPGKAPKLILYEVTKRPSGVPDRFSGSKSGNTASLTISGLQAEDEADYYCSSYTSSSTVVFGGGTKLTVLGQPKAAPSVTLFPPSSAAAGSEQKLISEEDLSHHHHHH | binds | no binding |  |
| hg012-C6 scFv (scFv, Soluble scFv made in E. coli, with Myc tag and His tag) scFv: EVQLVQSGGGLVQPGRSLRLSCTASGFTFGDYAMSWVRQAPGKGLEWVGFIRSKAYGGTTEYAASVKGRFTISRDDSKSIAYLQMNSLKTEDTAVYYCTRVPVVAGWYNWFDPWGQGTLVTVSSGSASAPKLEEGEFSEARVQSVLTQPPSASGTPGQRVTISCSGSSSNIGSNYVYWYQQLPGTAPKLLIYRNNQRPSGVPDRFSGSKSGNTASLTVSGLQAGDEADYYCSSYAGSNNVVFGGGTKLAVLGQPKAAPSVTLFPPSSAAAGSEQKLISEEDLSHHHHHH | binds | no binding |  |
| hg012-C8 scFv (scFv, Soluble scFv made in E. coli, with Myc tag and His tag) scFv: QVTLKESGGGLVQPGRSLRLSCAASGFTFDDYAMHWVRQAPGKGLEWVSGISWNSGSIGYADSVKGRFTISRDNAKNSLYLQMNSLRAEDTALYYCAKGANYDILTGYRKDNWFDPWGQGTLVTVSSGSASAPKLEEGEFSEARVDIVMTQTPSTLSASVGDRVTITCRASQTISNWLAWYQQKPGKAPKLLIYKASTLESGVPSRFSGTGSGTEFTLTISSLQPDDFATYFCQQYHSYSRTFGQGTKVDVARTVAAPSVAAAGSEQKLISEEDLSHHHHHH | binds | no binding |  |
| hg012-E4 scFv (scFv, Soluble scFv made in E. coli, with Myc tag and His tag) scFv: QVTLKESGGGLVQPGRSLRLSCAASGFTFDDYAMHWVRQAPGKGLEWVSGISWNSGSIGYADSVKGRFTISRDNAKNSLYLQMNSLRAEDTALYYCAKGANYDILTGYRKDNWFDPWGQGTLVTVSSGSASAPKLEEGEFSEARVDIVMTQSPATLSLSPGERATLSCRASQSVGSSLAWFQQKPGQAPRLLIYDASNRATGIPARFSGSGSGTDFTLTISSLEPEDFAVYYCQQRSNWPPYTFGQGTKLEIKRTVAAPSVAAAGSEQKLISEEDLSHHHHHH | binds | no binding |  |
| hg012-A8 scFv (scFv, Soluble scFv made in E. coli, with Myc tag and His tag) scFv: QVTLKESGGGLVQPGRSLRLSCAASGFTFDDYAMHWVRQAPGKGLEWVSGISWNSGSIGYADSVKGRFTISRDNAKNSLYLQMNSLRAEDTALYYCAKGANYDILTGYRKDNWFDPWGQGTLVTVSSGSASAPKLEEGEFSEARVLPVLTQPPSASGTPGQKVTISCSGSSSNIGSNYVFWYEQLPGAAPKLLMYSSNQRPSGVPDRFSGSKSGTSASLAISGLRSEDEADYYCAAWDDSLSGWVFGGGTKLTVLGQPKAAPSVTLFPPSSAAAGSEQKLISEEDLSHHHHHH |  | no binding |  |
| hg012-F10 scFv (scFv, Soluble scFv made in E. coli, with Myc tag and His tag) scFv: QMQLVQSGGGVVQPGRSLRLSCAASGFTFSSYGMHWVRQAPGKGLERVAVISYDGSNKYYADSVKGRFTISRDNSKNTLYLQMNSLRAEDTALYYCAKDHHPYGSSDSFDYWGQGTLVTVSSGSASAPKLEEGEFSEARVQAVVTQEPSLTVSPGGTVTLTCGSSTGAVTRGHYPYWLQQKPGQAPRTLIYDTVKKHSWTPARFSGSLVGGKAALTLSGAQPEDEADYYCLLSFIDTRYPARYVFGTGTKVTVLGQPKANPTVTLFPPSSAAAGSEQKLISEEDLSHHHHHH |  | no binding |  |
